How the values were obtained:
[1] = biological target: T1, DnaA (AaDnaA, truncated) (Aquifex aeolicus, UniProt O66659 77-399); assay: smPIFE
T1 sequence: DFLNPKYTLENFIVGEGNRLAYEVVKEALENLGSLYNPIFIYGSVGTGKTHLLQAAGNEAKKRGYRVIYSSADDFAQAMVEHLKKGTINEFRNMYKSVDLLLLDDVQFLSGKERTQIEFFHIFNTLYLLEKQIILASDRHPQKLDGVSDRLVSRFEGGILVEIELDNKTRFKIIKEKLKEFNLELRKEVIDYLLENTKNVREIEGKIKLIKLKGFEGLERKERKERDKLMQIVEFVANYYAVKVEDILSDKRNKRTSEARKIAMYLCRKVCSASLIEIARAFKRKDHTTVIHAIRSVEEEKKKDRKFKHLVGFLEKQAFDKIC

[2] = biological target: T1, DnaA (AaDnaA, truncated); assay: smPIFE; remark: listed apart in the source
[3] = biological target: T1, DnaA (AaDnaA, truncated); assay: smPIFE; remark: listed apart in the source
[4] = biological target: T1, DnaA (AaDnaA, truncated); assay: smPIFE; remark: listed apart in the source
[5] = biological target: T1, DnaA (AaDnaA, truncated); assay: smPIFE; remark: listed apart in the source
[6] = biological target: T1, DnaA (AaDnaA, truncated); assay: smFRET

B1: pdT21 (Cy3 only, PIFE) (mixed)
DNA 1: TGGCGACGGCAGCGAGGCTTTTTTTTTTTTTTTTTTTTT
DNA 2: GCCTCGCTGCCGTCGCCA
binding result [1]: binds

B2: pdTcontrol (Cy3 only) (mixed)
DNA 1: TGGCGACGGCAGCGAGGCTTTTTTTTTTTTTTTTTTTTT
DNA 2: GCCTCGCTGCCGTCGCCA
modifications: C6-amino-dT at position 19
binding result [2]: binds

B3: pdT3+17 (Cy3 only) (mixed)
DNA 1: TGGCGACGGCAGCGAGGCTTTTTTTTTTTTTTTTTTTTT
DNA 2: GCCTCGCTGCCGTCGCCA
modifications: C6-amino-dT at position 22
binding result [3]: binds

B4: 5'-OP21 (Cy3 only) (mixed)
DNA 1: TTTTTTTTTTTTTTTTTTTTTCGGAGCGACGGCAGCGGT
DNA 2: ACCGCTGCCGTCGCTCCG
binding result [4]: binds

B5: 3'-OP21 (Cy3 only) (mixed)
DNA 1: TTTTTTTTTTTTTTTTTTTTTCGGAGCGACGGCAGCGGT
DNA 2: ACCGCTGCCGTCGCTCCG
modifications: C6-amino-dT at position 21
binding result [5]: binds

B6: pdT21 (mixed)
DNA 1: TGGCGACGGCAGCGAGGCTTTTTTTTTTTTTTTTTTTTT
DNA 2: GCCTCGCTGCCGTCGCCA
binding result [6]: binds
